Measurements taken from patent CN110218251A (FUZHOU MAIXIN BIOTECHNOLOGY DEV CO LTD, dated 2019).

Target: T1, MSH2蛋白 (endogenous, in HCT8 and Biu-87 cell lysates and in human tissue sections) (human, UniProt P43246 2-934)
T1 construct: Endogenous protein; also called MutS homolog 2
Experiment: IHC on tonsil tissue

T1 sequence (P43246 2-934 limits assumed): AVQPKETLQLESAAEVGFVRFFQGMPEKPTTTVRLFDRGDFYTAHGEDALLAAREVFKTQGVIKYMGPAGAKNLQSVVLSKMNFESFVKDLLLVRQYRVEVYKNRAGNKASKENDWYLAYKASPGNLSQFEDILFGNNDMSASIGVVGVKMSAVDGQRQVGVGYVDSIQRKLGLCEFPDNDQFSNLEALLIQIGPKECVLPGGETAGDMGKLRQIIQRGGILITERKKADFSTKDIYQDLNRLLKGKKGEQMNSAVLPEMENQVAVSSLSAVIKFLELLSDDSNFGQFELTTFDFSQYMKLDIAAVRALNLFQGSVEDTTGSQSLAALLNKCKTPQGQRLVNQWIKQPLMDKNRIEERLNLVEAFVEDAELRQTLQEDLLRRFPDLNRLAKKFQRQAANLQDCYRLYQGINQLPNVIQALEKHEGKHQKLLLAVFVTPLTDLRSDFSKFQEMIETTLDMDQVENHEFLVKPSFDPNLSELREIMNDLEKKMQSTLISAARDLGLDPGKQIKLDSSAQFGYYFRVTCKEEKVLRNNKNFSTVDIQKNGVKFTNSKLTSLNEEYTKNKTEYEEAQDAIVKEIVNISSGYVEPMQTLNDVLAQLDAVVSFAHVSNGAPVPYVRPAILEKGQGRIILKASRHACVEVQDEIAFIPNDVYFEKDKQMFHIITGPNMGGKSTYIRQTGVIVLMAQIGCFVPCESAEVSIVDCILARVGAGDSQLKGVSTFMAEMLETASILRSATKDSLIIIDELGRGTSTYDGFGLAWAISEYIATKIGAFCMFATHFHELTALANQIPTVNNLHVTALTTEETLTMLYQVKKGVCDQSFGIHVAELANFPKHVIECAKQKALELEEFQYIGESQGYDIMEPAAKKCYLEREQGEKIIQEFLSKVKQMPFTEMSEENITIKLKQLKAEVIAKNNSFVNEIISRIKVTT

binding result: binds
B1: 抗MSH2蛋白单克隆抗体(1B11-14-16) (antibody, V domains shown)
VH: QVQLQQSGAELMKPGASVRISCKATGYTFTRYWIEWVKERPGHGLEWIGEILPGSGGTNYNEKFKGKATFTADTSSNTVHMQLNSLTSEDSAVYYCVKREGPYWGRGTLVTVSA
VL: DVLMTQTPLSLPVSLGDQASISCRSSQSIVYRTGSTFLEWYLQKPGQSPKLLIYKVSNRFSGVPDRFSGSGSGTDFTLKISRVEAEDLGVYYCFQGSHLPYTFGGGTKLEIK
notes: also called MSH2(1B11-14-16)单克隆抗体; 1B11-14-16的MSH2
